Results as given in patent publication US20100331256.
Where “and” joins values, the source holds several entries; their conditions need not be identical. Identical values can stand only once.

How the values were obtained:
Analog P: CNP22, K4G = target: T1, Analog P: CNP22, K4G
T1 chain: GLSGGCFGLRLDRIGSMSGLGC

PEG5K-CNP22 = target: T2, PEG5K-CNP22
T2 chain: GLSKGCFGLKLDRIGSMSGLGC

[1] = target: T3, Analog F: CNP22, t-butyl-G8
T3 chain: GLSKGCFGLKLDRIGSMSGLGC

PEG2K-CNP17 = target: T4, PEG2K-CNP17
T4 chain: CFGLKLDRIGSMSGLGC

[2] = target: T5, Analog E: CNP22, D-F7 (D-Phe)
T5 chain: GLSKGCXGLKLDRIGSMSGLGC

[3] = target: T6, Analog B: CNP22, N-methyl-F7 (methylated amide)
T6 chain: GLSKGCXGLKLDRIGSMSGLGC

[4] = target: T7, Analog BJ: CNP22, K4R, G15N
T7 chain: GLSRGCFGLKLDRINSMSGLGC

[5] = target: T8, Analog AV: Pentanoic acid (N-term.)-CNP22, G1E, K4E (not fully specified)
T8 chain: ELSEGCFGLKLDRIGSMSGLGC

[6] = target: T9, Analog CS: GQEHPNARKYKGANPK-CNP22 (modified CNP37) (not fully specified)
T9 chain: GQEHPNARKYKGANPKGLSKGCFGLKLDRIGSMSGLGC

PEG20K-CNP22 = target: T10, PEG20K-CNP22
T10 chain: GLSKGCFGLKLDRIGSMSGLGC

PEG1K-CNP22 = target: T11, PEG1K-CNP22
T11 chain: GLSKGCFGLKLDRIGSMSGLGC

[7] = target: T12, Analog AC: CNP22, K4R, G8T
T12 chain: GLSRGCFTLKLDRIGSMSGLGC

[8] = target: T13, Analog X: CNP22, K4G, 3-methyl-F7
T13 chain: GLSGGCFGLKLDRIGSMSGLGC

PEO12-R-CNP22(K4R) = target: T14, PEO12-R-CNP22(K4R)
T14 chain: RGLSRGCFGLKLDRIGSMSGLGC

PEG1K-GANRR-CNP22(K4R) = target: T15, PEG1K-GANRR-CNP22(K4R)
T15 chain: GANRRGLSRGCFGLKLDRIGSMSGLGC

[9] = target: T16, Analog G: CNP22, 3-chloro-F7
T16 chain: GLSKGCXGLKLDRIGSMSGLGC

[10] = target: T17, Analog V: CNP22, K4G, 3,4-dichloro-F7
T17 chain: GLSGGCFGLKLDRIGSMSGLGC

[11] = target: T18, Analog M: CNP22, N-methyl-L9, N-methyl-L11
T18 chain: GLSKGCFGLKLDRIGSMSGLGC

PEO12-GANRR-CNP22(K4R) = target: T19, PEO12-GANRR-CNP22(K4R)
T19 chain: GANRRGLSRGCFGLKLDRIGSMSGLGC

Analog BA: ER-CNP22, K4R = target: T20, Analog BA: ER-CNP22, K4R
T20 chain: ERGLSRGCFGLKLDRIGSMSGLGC

Analog AH: CNP22, K4R = target: T21, Analog AH: CNP22, K4R
T21 chain: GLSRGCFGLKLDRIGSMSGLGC

PEO12-CNP22 = target: T22, PEO12-CNP22
T22 chain: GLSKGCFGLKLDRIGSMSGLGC

[12] = target: T23, Analog CK: GQPREPQVYTGANQQ-CNP22, K4R (IgG1 fragment)
T23 chain: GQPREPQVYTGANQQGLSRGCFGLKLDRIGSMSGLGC

[13] = target: T24, Analog CG: GANSS-CNP22, K4R
T24 chain: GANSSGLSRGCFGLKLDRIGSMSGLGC

[14] = target: T25, Analog AY: GANRR-CNP22, K4R (CNP-27)
T25 chain: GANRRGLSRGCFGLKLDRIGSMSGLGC

[15] = target: T26, Analog N: D-CNP22 (all D-amino acids)
T26 chain: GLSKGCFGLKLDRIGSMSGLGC

[16] = target: T27, Analog CL: GVPQVSTSTGANQQ-CNP22, K4R (HSA fragment)
T27 chain: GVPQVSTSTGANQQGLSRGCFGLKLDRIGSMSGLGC

[17] = target: T28, PEO4-(PEO12)3 (branched)-CNP22
T28 chain: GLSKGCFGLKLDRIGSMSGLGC

PEO24-GANRR-CNP22(K4R) = target: T29, PEO24-GANRR-CNP22(K4R)
T29 chain: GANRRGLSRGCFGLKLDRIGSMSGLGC

[18] = target: T30, Analog BK: CNP22, K4R, G15S
T30 chain: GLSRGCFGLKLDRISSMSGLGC

[19] = target: T31, Analog H: CNP22, Beta-2-F7 (3-amino-2-phenylpropionyl)
T31 chain: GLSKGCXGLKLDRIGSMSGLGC

[20] = target: T32, wild-type C-type natriuretic peptide 22 (CNP22)
T32 chain: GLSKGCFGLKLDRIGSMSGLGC

[21] = target: T33, Analog AW: Heptanoic acid (N-term.)-CNP22, G1E, K4E
T33 chain: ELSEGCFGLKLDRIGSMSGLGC

[22] = target: T34, Analog BB: Heptanoic acid (N-term.)-CNP22, G1E
T34 chain: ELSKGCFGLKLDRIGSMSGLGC

Analog AZ: R-CNP22, K4R = target: T35, Analog AZ: R-CNP22, K4R
T35 chain: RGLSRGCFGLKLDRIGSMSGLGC

(PEO12)-Biotin-CNP22 = target: T36, (PEO12)-Biotin-CNP22
T36 chain: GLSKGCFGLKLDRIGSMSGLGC

PEG2K-CNP22 = target: T37, PEG2K-CNP22
T37 chain: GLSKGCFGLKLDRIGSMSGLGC

PEO24-CNP22 = target: T38, PEO24-CNP22
T38 chain: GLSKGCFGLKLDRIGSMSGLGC

[23] = target: T39, Analog BL: QEHPNARKYKGANKK-CNP22 (CNP37)
T39 chain: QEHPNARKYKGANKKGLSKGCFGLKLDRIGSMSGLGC

Analog BM: CNP53 = target: T40, Analog BM: CNP53
T40 chain: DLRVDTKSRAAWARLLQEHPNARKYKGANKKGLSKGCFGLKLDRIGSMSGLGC

[24] = target: T41, Analog CC: DLRVDTKSRAAWAR-CNP22
T41 chain: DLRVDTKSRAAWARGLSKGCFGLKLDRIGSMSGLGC

PEO12-GANPR-CNP22(K4R) = target: T42, PEO12-GANPR-CNP22(K4R)
T42 chain: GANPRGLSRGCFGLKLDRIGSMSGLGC

[25] = target: T43, Analog CF: GQPREPQVYTLPPS-CNP22 (IgG1(Fc) fragment)
T43 chain: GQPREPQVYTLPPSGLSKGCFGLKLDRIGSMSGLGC

[26] = target: T44, Analog L: CNP22, N-methyl-L9, N-methyl-L11, N-methyl-L20
T44 chain: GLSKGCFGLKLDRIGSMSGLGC

[27] = target: T45, Analog AT: CNP22, G1E, K4E
T45 chain: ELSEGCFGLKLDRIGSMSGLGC

[28] = target: T46, Analog A: CNP22, C6-CH2-NH (reduced carbonyl)
T46 chain: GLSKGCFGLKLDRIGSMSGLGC

[29] = target: T47, Analog K: CNP22, N-methyl-L9, N-methyl-L20
T47 chain: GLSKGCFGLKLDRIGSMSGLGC

B1: recombinant human neutral endopeptidase (NEP) (protein)
chain: DDGICKSSDCIKSAARLIQNMDATTEPCTDFFKYACGGWLKRNVIPETSSRYGNFDILRDELEVVLKDVLQEPKTEDIVAVQKAKALYRSCINESAIDSRGGEPLLKLLPDIYGWPVATENWEQKYGASWTAEKAIAQLNSKYGKKVLINLFVGTDDKNSVNHVIHIDQPRLGLPSRDYYECTGIYKEACTAYVDFMISVARLIRQEERLPIDENQLALEMNKVMELEKEIANATAKPEDRNDPMLLYNKMTLAQIQNNFSLEINGKPFSWLNFTNEIMSTVNISITNEEDVVVYAPEYLTKLKPILTKYSARDLQNLMSWRFIMDLVSSLSRTYKESRNAFRKALYGTTSETATWRRCANYVNGNMENAVGRLYVEAAFAGESKHVVEDLIAQIREVFIQTLDDLTWMDAETKKRAEEKALAIKERIGYPDDIVSNDNKLNNEYLELNYKEDEYFENIIQNLKFSQSKQLKKLREKVDKDEWISGAAVVNAFYSSGRNQIVFPAGILQPPFFSAQQSNSLNYGGIGMVIGHEITHGFDDNGRNFNKDGDLVDWWTQQSASNFKEQSQCMVYQYGNFSWDLAGGQHLNGINTLGENIADNGGLGQAYRAYQNYIKKNGEEKLLPGLDLNHKQLFFLNFAQVWCGTYRPEYAVNSIKTDVHSPGNFRIIGTLQNSAEFSEAFHCRKNSYMNPEKKCRVW
With B1 the NEP cleavage t1/2 (Analog P: CNP22, K4G) was 1.13 h, the NEP cleavage t1/2 (PEG5K-CNP22) was greater than 2.67 h and the NEP cleavage t1/2 [1] was 1.33 h. For the same protein, the NEP cleavage t1/2 (PEG2K-CNP17) was greater than 2.67 h, the NEP cleavage t1/2 [2] was 2.17 h and the NEP cleavage t1/2 [3] was 1.33 h. The NEP cleavage t1/2 [4] was 2.5 h, the NEP cleavage t1/2 [5] was 2 h and the NEP cleavage t1/2 [6] was greater than 2.67 h. The NEP cleavage t1/2 (PEG20K-CNP22) was greater than 2.67 h, the NEP cleavage t1/2 (PEG1K-CNP22) was greater than 2.67 h and the NEP cleavage t1/2 [7] was 1.33 h. The NEP cleavage t1/2 [8] was 1.13 h, the NEP cleavage t1/2 (PEO12-R-CNP22(K4R)) was no less than 2.67 h and the NEP cleavage t1/2 (PEG1K-GANRR-CNP22(K4R)) was greater than 2.67 h. The NEP cleavage t1/2 [9] was 2.25 h, the NEP cleavage t1/2 [10] was 1.13 h and the NEP cleavage t1/2 [11] was greater than 2.67 h. It also gave an NEP cleavage t1/2 (PEO12-GANRR-CNP22(K4R)) greater than 2.67 h, an NEP cleavage t1/2 (Analog BA: ER-CNP22, K4R) of 1.5 h and an NEP cleavage t1/2 (Analog AH: CNP22, K4R) of 1.33 h. It also gave an NEP cleavage t1/2 (PEO12-CNP22) of no less than 2.67 h, an NEP cleavage t1/2 [12] of no less than 2.67 h and an NEP cleavage t1/2 [13] of 1.58 h. The NEP cleavage t1/2 [14] was 1.08 h, the NEP cleavage t1/2 [15] was greater than 2.67 h and the NEP cleavage t1/2 [16] was greater than 2.67 h. It also gave an NEP cleavage t1/2 [17] greater than 2.67 h, an NEP cleavage t1/2 (PEO24-GANRR-CNP22(K4R)) greater than 2.67 h and an NEP cleavage t1/2 [18] of no less than 2.67 h. For the same protein, the NEP cleavage t1/2 [19] was 1.33 h, the NEP cleavage t1/2 [20] was 1.33 h and the NEP cleavage t1/2 [21] was less than 0.333 h. The NEP cleavage t1/2 [22] was 0.75 h and 1.08 h, the NEP cleavage t1/2 (Analog AZ: R-CNP22, K4R) was no less than 2.67 h and the NEP cleavage t1/2 ((PEO12)-Biotin-CNP22) was 2.33 h. The NEP cleavage t1/2 (PEG2K-CNP22) was greater than 2.67 h, the NEP cleavage t1/2 (PEO24-CNP22) was greater than 2.67 h and the NEP cleavage t1/2 [23] was greater than 2.67 h. For the same protein, the NEP cleavage t1/2 (Analog BM: CNP53) was greater than 2.67 h, the NEP cleavage t1/2 [24] was greater than 2.67 h and the NEP cleavage t1/2 (PEO12-GANPR-CNP22(K4R)) was 1.33 h. For the same protein, the NEP cleavage t1/2 [25] was greater than 2.67 h, the NEP cleavage t1/2 [26] was 0.5 h and the NEP cleavage t1/2 [27] was 1 h. It also gave an NEP cleavage t1/2 [28] of 0.917 h and an NEP cleavage t1/2 [29] of 1.33 h.
